Measurements published in FireProtDB (doi:10.1021/bi00250a042).

Conditions: Hordeum vulgare; pH 6.3; 25 °C; GdnHCl; Fluorescence; MES 450 mM; reversible: yes; whole UniProt chain shown

B1: Subtilisin-chymotrypsin inhibitor-2A wild type, P01053 (protein)
chain: MSSVEKKPEGVNTGAGDRHNLKTEWPELVGKSVEEAKKVILQDKPEAQIIVLPVGTIVTMEYRIDRVRLFVDKLDNIAQVPRVG
denaturant m value: 1.89 kcal/mol/M | denaturant midpoint (higher = more stable): 3.99 M | unfolding free energy: 7.53 kcal/mol
